The target of this experiment is human GLP-1 receptor (GLP-1R) (human) (UniProt P43220).

The source of these data is patent US20260193324A1.

UniProt P43220, sequence (P43220 24-463): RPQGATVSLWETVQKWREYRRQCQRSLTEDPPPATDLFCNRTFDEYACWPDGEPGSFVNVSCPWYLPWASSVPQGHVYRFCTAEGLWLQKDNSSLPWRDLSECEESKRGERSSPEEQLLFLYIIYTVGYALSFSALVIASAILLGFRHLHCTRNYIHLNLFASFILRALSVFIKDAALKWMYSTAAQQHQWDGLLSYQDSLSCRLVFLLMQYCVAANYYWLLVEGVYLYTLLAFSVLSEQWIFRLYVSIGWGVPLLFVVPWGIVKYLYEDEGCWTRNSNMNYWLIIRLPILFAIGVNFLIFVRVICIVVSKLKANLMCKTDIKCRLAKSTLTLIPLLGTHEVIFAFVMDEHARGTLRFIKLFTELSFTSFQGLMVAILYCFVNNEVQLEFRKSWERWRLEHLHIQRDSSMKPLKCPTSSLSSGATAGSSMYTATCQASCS

Substance “GLP-1(7-37) peptide (from UniProt P01275 21-180)” returned an EC50 (read off the curve), 4 hr stimulation of 1 nM.
